Assay results taken from US20160222086.

Legend:
[1] = tested on: T1, thrombin-activated rFVIII (rFVIIIa), made from the recombinant B-domain truncated Factor VIII N8
T1 sequence: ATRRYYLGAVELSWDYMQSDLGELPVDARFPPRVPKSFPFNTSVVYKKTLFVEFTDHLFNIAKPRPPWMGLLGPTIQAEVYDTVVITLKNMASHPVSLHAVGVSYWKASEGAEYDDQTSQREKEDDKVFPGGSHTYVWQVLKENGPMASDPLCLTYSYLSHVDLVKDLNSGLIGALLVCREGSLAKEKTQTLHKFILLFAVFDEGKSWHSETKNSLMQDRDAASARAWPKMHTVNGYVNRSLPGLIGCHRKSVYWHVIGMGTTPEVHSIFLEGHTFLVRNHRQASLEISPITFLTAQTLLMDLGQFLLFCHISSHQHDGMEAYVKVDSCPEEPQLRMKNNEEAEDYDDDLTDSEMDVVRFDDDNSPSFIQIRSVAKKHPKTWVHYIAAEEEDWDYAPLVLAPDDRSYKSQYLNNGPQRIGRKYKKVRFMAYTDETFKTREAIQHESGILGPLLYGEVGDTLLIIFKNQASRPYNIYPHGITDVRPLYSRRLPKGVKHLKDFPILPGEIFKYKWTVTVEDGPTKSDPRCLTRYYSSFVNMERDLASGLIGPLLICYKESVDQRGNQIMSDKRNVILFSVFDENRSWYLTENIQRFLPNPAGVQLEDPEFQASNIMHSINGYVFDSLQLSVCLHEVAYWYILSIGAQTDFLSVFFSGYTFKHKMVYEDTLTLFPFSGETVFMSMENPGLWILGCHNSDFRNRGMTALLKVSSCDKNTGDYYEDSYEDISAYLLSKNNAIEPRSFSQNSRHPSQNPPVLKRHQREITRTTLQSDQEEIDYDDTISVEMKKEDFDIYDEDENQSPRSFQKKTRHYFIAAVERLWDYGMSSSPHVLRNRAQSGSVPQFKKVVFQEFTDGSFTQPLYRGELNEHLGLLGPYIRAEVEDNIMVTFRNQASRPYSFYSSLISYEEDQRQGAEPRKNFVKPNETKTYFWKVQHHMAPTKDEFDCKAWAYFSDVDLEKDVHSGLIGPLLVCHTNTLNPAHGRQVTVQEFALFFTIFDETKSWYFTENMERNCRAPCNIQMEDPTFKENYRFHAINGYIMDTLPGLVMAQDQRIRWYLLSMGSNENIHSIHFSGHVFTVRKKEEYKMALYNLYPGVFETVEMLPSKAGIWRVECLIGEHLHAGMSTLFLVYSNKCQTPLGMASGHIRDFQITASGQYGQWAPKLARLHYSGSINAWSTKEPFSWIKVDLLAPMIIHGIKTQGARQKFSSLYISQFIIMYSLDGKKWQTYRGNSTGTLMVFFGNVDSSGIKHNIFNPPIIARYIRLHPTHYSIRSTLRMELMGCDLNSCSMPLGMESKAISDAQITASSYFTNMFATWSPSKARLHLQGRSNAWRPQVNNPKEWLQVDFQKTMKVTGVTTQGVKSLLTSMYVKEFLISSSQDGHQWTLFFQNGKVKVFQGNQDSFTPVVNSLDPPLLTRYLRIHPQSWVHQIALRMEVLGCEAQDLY

[2] = tested on: T2, thrombin-activated 80 K-PEG-[O]-rFVIII
T2 sequence: T1 sequence

[3] = tested on: T3, thrombin-activated 40 K-PEG-[O]-rFVIII
T3 sequence: T1 sequence

FIXa
K1/2FIXa [1]: 0.88 nM | K1/2FIXa [2]: 1.11 nM | apparent Kd of rFVIIIa-FIXa interaction (K1/2FIXa) [2]: O-linked glycoPEGylation did not affect the apparent Kd of rFVIIIa-FIXa interaction (K1/2FIXa) | K1/2FIXa [3]: 0.42 nM | apparent Kd of rFVIIIa-FIXa interaction (K1/2FIXa) [3]: O-linked glycoPEGylation did not affect the apparent Kd of rFVIIIa-FIXa interaction (K1/2FIXa)
